Experimental findings from patent publication US20230137032A1 (GlaxoSmithKline, published 2023) are described below.

Numbering of substitutions follows the chain as printed.

The EC50 is the concentration needed to bring the measured effect to its halfway point. As a reminder, the Kd is a measure of binding affinity in units of concentration.

Test [1] concerns the target T1, human BCMA expressed on cells (human, UniProt Q02223 1-184).
T1 sequence (looked up): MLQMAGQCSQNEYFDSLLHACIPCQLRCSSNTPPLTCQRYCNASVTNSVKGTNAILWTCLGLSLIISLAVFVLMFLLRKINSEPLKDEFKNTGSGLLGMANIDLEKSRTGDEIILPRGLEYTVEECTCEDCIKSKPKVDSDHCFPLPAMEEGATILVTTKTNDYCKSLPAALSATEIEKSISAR
Description: cell-based or functional assay.

Test [2] addresses T2, recombinant human BCMA Fc 4-53 (human).
T2 construct: also called Human BCMA CD33-hBCMA ECD (4-53) TEV-Fc; recombinant BCMA
Description: ELISA, neutralisation of ligand binding to plate-coated BCMA Fc 4-53; competitor APRIL; competitor APRIL. On the procedure:
(§1) 96 well flat bottomed plates were coated overnight with 1 μg/mL solution of recombinant human BCMA Fc 4-53 in PBS. Following a wash step using 0.05% TWEEN20, plates were blocked with 2% Bovine Serum Albumin solution in PBS for 1 hour at room temperature. […] 40 μL of 2% BSA was added to the relevant control wells. […] Equivalent volume of 2% BSA was added to the relevant control wells. Plates were allowed to incubate for 2 hours at room temperature, after which they were washed as before. […] Following a wash step, 50 µL of a 1:4000 dilution of Streptavidin-HRP (Amersham RPN4401) was added to each well and incubated for 30 minutes at room temperature. The wash process was repeated again followed by the addition of […] of Tetramethylbenzidine substrate solution (T8665, Sigma) into each well. Plates were incubated for 20-25 minutes at room temperature, wrapped in foil. The reaction was stopped with the addition of […] of 1M H₂SO₄. Optical density was determined at 450 nm using Spectromax reader.
(An ELISA detects its analyte on a solid surface through an enzyme-linked reagent.)

Test [3] has as its target T2, recombinant human BCMA Fc 4-53. As to the kind of experiment: ELISA, neutralisation of ligand binding to plate-coated BCMA Fc 4-53; competitor BAFF; competitor BAFF. Here is the method:
as §1

Test [4] has the same target. As to the kind of experiment: competition ELISA: binding of recombinant human APRIL to coated recombinant human BCMA Fc 4-53, biotinylated anti-APRIL and streptavidin-HRP, % of control. Here is the method: as §1
Test [5] shares this target. As to the kind of experiment: competition ELISA: binding of recombinant human BAFF to coated recombinant human BCMA Fc 4-53, biotinylated anti-BAFF and streptavidin-HRP, % of control. On the procedure:
as §1

Test [6] concerns the target T1, human BCMA expressed on cells. As to the kind of experiment: FACS on ARH77-hBCMA 10B5 transfectant cells, PE anti-human IgG, MFI. On the procedure:
Cells were then washed with FACS buffer (PBS+0.5% BSA+0.1% sodium azide) to remove unbound antibody. Cells were incubated with a secondary PE labelled anti-human IgG antibody for 15 minutes at RT and then washed with FACS buffer to remove unbound antibody. Cells were analysed by FACS and mean fluorescence intensity (MFI) values measured to determine binding.

Test [7] has as its target T3, recombinant human BCMA, commercial (US Biological, B0410) (human, UniProt Q02223 5-54, limits assumed).
T3 construct: also called commercial human BCMA; Human commercial BCMA
T3 chain (looked up): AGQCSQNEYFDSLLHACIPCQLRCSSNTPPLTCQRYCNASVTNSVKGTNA
Description: ProteOn SPR run 2, antibody captured on Protein A, 25C.

Test [8] deals with T4, recombinant cyno BCMA, in house material (cyno, UniProt A0A2K5UD97 4-52).
T4 construct: also called Cyno in house BCMA
The description is as above.

Test [9] concerns the target T5, recombinant human BCMA, in house material (human, UniProt Q02223 4-53, limits assumed).
T5 construct: also called Human in house BCMA; In house human BCMA
As to the kind of experiment: ProteOn SPR run 2, antibody captured on Protein A, 25C; Run 2 (Table 9). Here is the method: (§2) The initial screen of CA8 chimeric and humanised variants was carried out on the ProteOn XPR36 (Biorad). The method was as follows; Protein A was immobilised on a GLC chip (Biorad, Cat No: 176-5011) by primary amine coupling, CA8 variants were then captured on this surface and recombinant human BCMA (in house or commercial US Biological, B0410) materials (run 2 only)) passed over at 256, 64, 16, 4, 1 nM with a 0 nM injection (i.e. buffer alone) used to double reference the binding curves, the buffer used is the HBS-EP buffer. 50 mM NaOH was used to regenerate the capture surface. The data was fitted to the 1:1 model using the analysis software inherent to the ProteOn XPR36. […] Both runs were carried out at 25° C.

Test [10] addresses T3, recombinant human BCMA, commercial (US …). Description: Biacore T100, antibody captured on Protein A, 37C. On the technique in general: In SPR one partner is held on a chip, and binding of the other changes the refractive index at the surface.
The target in test [11] is T4, recombinant cyno BCMA, in house material. Description: Biacore T100, antibody captured on Protein A, 37C.
Test [12] deals with T3, recombinant human BCMA, commercial (US …). As to the kind of experiment: Biacore T100, antibody captured on Protein A, 25C, experiment 1. On the procedure:
(§3) Protein A was immobilised on a CMS chip (GE Healthcare, Cat No: BR-1005-30) by primary amine coupling and this surface was then used to capture the antibody molecules. Recombinant human BCMA (US Biological, B0410) was used as analyte at 256 nM, 64 nM, 16 nM, 4 nM and 1 nM. Regeneration of the capture surface was carried out using 50 mM NaOH. All binding curves were double referenced with a buffer injection (i.e. 0 nM) the data was fitted to the using the 1:1 model inherent to T100 evaluation software. The run was carried out at 25° C. and 37° C. for experiment 1 and only 37° C. for experiment 2 using HBS-EP as the running buffer.

Test [13] has the same target. Description: Biacore T100, antibody captured on Protein A, 37C, experiment 1. On the procedure: as §3
Test [14] has the same target. Description: Biacore T100, antibody captured on Protein A, 37C, experiment 2. Here is the method: as §3
For test [15], the target named is T1, human BCMA expressed on cells. Description: FACS on H929 multiple myeloma cells, antibody 5 µg/mL, PE anti-mouse IgG. Here is the method:
Cells were incubated for 20 mins at room temperature (RT) and then washed with FACS buffer (PBS+0.5% BSA+0.1% sodium azide) to remove unbound antibody. Cells were incubated with a secondary PE labelled anti-mouse IgG antibody for 15 minutes at RT and then washed with FACS buffer to remove unbound antibody. Cells were analysed by FACS to detect antibody bound to the cells.

Test [16] addresses T5, recombinant human BCMA, in house …. Description: ProteOn SPR run 1, antibody captured on Protein A, 25C; Run 1 (Table 8). On the procedure: as §2

B1: J6M0 potelligent antibody (afucosylated humanised CA8 J6M0) (antibody, human IgG1, kappa, V domains shown)
VH: QVQLVQSGAEVKKPGSSVKVSCKASGGTFSNYWMHWVRQAPGQGLEWMGATYRGHSDTYYNQKFKGRVTITADKSTSTAYMELSSLRSEDTAVYYCARGAIYDGYDVLDNWGQGTLVTVSS
VL: DIQMTQSPSSLSASVGDRVTITCSASQDISNYLNWYQQKPGKAPKLLIYYTSNLHSGVPSRFSGSGSGTDFTLTISSLQPEDFATYYCQQYRKLPWTFGQGTKLEIKR
modifications: afucosylated (Potelligent) Fc glycan
notes: human IgG1 kappa; also called J6M0 potelligent version; CA8 J6M0 Potelligent
Turning to B1, the “IC50 for inhibition of APRIL signalling (phosphorylated NFkappaB in washed H-929 cells)” value in [1] turned out to be 2.43 µg/mL. For the same molecule, the “IC50 for inhibition of BAFF signalling (phosphorylated NFkappaB in washed H-929 cells)” value in test [1] is 0.91 µg/mL. Besides, the concentration for a half-maximal effect (EC50) in test [2] was 0.616 µg/mL; in test [3], 0.748 µg/mL. Besides, the “IC50 (read off the curve)” value in [4] is approximately 0.6 µg/mL; in test [5], approximately 0.7 µg/mL.

B2: CA8 humanised J6M1 (antibody, human IgG1, kappa, V domains shown)
VH: B1 VH
VL: B1 VL with F71Y
notes: Humanised CA8, heavy chain J6 with light chain M1, human IgG1 kappa; also called CA8 J6M1
In the case of B2, the binding result in [6] is reported as “binds”. The Kd in test [7] came to 0.063 nM; in test [8], 5.3 nM; in test [9], 0.124 nM.

B3: CA8 humanised J9M1 (antibody, human IgG1, kappa, V domains shown)
VH: B1 VH with A24G, G27Y, S30T, M48I, V68A, I70L, K74T, A97T
VL: B1 VL with F71Y
notes: Humanised CA8, heavy chain J9 with light chain M1, human IgG1 kappa; also called CA8 J9M1
Take B3: the binding result in test [6] is given as “binds”. Further, the Kd came to 0.018 nM in test [10] and 0.442 nM in test [11].

B4: CA8 humanised J6M2 (antibody, human IgG1, kappa, V domains shown)
VH: B1 VH
VL: B1 VL with M4L, K45E, L47V, F71Y
notes: Humanised CA8, heavy chain J6 with light chain M2, human IgG1 kappa; also called CA8 J6M2
For B4, in test [6], the binding result is given as “binds”. Besides, the results for the Kd in [7], in test [8] and in test [9] were 0.071 nM, 6.86 nM and 0.202 nM, respectively.

B5: CA8 humanised J6M0 (antibody, human IgG1, kappa, V domains shown)
VH: B1 VH
VL: B1 VL
notes: Humanised CA8, heavy chain J6 with light chain M0, human IgG1 kappa; also called CA8 J6M0; humanised J6M0 (wild type)
Turning to B5, the results for the EC50 in test [2] and in test [3] were 0.63 µg/mL and 0.776 µg/mL, respectively. For the same molecule, the binding result in test [6] is listed as “binds”. The dissociation constant Kd in test [12] was 0.121 nM; in [13] it was 0.698 nM; in test [7] it was 0.086 nM; in test [8] it was 5.63 nM; in test [14], 0.498 nM; in test [9] it was 0.308 nM. The “IC50 (read off the curve)” value in [4] is approximately 0.6 µg/mL; in [5] it was approximately 0.7 µg/mL.

B6: CA8 humanised J9M0 (antibody, human IgG1, kappa, V domains shown)
VH: B1 VH with A24G, G27Y, S30T, M48I, V68A, I70L, K74T, A97T
VL: B1 VL
notes: Humanised CA8, heavy chain J9 with light chain M0, human IgG1 kappa; also called CA8 J9M0
Take B6: in [6], the binding result is recorded as “binds”. For the same molecule, the Kd stood at 0.021 nM in [12]; 0.035 nM in test [10]; 0.46 nM in [11]; 0.042 nM in test [13]; 0.052 nM in test [14].

B7: murine S322110D07 (antibody, V domains shown)
VH: EVQLQQSGPELVKPGTSVKIPCKTSGYIFTDYSIDWVKQSHGKSLEWIGDIDPNYGDPIYNHKFKGKATLTVDRSSSTAYMELRSLTSEDTAVYFCARRATGTDWFAFWGQGTLVTVSS
VL: DIQMTQSPASLSVSVGETVTITCRASENIYNNLAWYQQKQGKSPQLLVYAATILADGVPSRFSGSGSGTQYSLKINSLQSGDFGTYYCQHFWGTPLTFGAGTKLELKR
notes: Murine hybridoma antibody; also called S3222110D07; S3322110D07
On to B7, for which, in test [15], the binding result was “binds”.

B8: S307118G03 Chimera (antibody, human IgG1, kappa, V domains shown)
VH: EVQLQQSGPELVKPGASVKISCKASGYTFTDYYMKWVKQSHGKSLEWIGEIYPNNGGITYNQKFKGKATLTVDKSSSTAYMELRSLTSEDSAVYYCANGYEFVYWGQGTLVTVSA
VL: DIQMTQTASSLSASLGDRVTISCSASQGISNYLNWYQQKPDGTVKLLIYYTSSLHSGVPSRFSGSGSGTDYSLTISNLEPEDIATYYCQQYSKLPWTFGGGTKLELKR
notes: also called chimeric S307118G03
Take B8: the Kd in test [16] is 4.11 nM; in test [7], 0.956 nM; in test [9] it was 3.44 nM. Also, in [8], the binding result is “no binding”.

B9: murine S332121F02 (antibody, V domains shown)
VH: EVQLQQSGPVLVKPGASVKMSCEASGYTFTDYYMNWVKQSHGKTLEWIGVINPYNGGTDYNQKFKGKATLTVDKSSSTAYMELNSLTSEDSAVYYCARSVYDYPFDYWGQGTLVTVSS
VL: DIVLTQSPASLAVSLGQRATISCRASESVSIHGTHLMHWYQQKPGQPPKLLIYAASNLESGVPARFSGSGSETDFTLNIHPVEEEDAATYFCQQSIEDPRTFGGGTKLEIK
notes: Murine hybridoma antibody
Turning to B9, the binding result in [15] was “binds”.
